According to patent publication US20240270874A1 (JIANGSU HENGRUI PHARMACEUTICALS, published 2024):
Read-outs that look alike come from different tables or passages of the source.

T1: human KLB on CHOK1-hKLB cells (human, UniProt Q86Z14 1-1044)
T1 construct: whole, on cells; also called human KLB antigen; β-Klotho
T1 sequence (looked up): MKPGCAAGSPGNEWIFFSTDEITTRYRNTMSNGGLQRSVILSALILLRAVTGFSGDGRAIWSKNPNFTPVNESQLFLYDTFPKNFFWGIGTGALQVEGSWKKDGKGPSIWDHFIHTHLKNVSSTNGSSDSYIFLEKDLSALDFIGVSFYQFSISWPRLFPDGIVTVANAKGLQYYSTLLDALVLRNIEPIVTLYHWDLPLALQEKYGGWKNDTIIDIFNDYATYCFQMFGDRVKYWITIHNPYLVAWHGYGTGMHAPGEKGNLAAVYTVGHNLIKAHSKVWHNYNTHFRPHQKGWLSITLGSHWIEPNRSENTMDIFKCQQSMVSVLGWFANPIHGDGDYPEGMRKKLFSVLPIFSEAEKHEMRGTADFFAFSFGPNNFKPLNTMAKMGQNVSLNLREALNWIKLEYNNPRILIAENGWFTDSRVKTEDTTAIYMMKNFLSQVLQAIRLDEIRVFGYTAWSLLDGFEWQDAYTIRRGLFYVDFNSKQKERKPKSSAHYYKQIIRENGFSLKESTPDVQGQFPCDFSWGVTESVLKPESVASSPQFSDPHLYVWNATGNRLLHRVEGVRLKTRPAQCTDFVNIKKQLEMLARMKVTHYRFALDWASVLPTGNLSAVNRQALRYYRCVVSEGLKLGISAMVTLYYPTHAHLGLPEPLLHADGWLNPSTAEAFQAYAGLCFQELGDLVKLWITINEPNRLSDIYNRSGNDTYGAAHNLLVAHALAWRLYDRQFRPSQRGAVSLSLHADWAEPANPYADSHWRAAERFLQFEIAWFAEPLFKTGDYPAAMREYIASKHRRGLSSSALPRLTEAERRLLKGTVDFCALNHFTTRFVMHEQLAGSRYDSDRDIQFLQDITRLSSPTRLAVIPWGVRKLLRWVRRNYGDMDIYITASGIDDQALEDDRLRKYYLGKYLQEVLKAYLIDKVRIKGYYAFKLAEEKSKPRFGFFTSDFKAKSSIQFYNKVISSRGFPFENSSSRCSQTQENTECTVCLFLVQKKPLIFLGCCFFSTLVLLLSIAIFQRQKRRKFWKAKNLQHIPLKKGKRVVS

T2: cynomolgus monkey KLB on CHOK1-cynoKLB cells (cynomolgus monkey, UniProt A0A2K5WB58 1-1044)
T2 construct: whole, on cells; also called monkey KLB antigen
T2 sequence: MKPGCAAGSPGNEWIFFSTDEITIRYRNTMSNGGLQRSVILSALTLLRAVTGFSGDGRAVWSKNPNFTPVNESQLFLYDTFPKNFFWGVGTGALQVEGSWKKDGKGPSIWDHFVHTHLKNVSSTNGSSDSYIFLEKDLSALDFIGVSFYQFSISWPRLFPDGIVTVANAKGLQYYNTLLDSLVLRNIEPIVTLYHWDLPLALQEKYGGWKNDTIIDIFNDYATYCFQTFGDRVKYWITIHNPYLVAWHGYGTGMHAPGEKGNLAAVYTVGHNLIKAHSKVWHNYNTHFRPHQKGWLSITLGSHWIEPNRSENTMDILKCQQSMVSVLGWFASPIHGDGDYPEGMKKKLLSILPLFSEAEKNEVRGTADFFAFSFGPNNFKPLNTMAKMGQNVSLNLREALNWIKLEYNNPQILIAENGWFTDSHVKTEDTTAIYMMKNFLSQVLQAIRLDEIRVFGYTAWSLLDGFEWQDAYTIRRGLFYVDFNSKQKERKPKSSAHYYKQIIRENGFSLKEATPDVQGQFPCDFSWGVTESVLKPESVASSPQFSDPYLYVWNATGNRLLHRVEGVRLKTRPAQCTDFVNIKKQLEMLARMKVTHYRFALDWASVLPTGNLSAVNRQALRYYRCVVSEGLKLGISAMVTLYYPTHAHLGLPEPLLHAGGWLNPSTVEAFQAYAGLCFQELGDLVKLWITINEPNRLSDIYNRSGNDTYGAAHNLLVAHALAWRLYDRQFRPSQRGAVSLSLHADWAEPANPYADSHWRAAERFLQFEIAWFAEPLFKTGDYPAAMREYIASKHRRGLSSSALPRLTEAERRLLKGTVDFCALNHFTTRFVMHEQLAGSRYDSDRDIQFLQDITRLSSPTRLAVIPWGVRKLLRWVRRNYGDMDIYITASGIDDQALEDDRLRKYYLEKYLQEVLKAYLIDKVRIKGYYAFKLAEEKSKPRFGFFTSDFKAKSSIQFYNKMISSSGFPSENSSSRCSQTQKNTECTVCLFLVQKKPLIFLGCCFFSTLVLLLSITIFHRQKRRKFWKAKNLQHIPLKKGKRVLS


Columns and labels:
[1] = molecular target: T3, human KLB&FGFR1c complex on cells (human, UniProt Q86Z14 1-1044; P11362 22-822); test: cell-based or functional assay
[2] = molecular target: T1, human KLB on CHOK1-hKLB cells; test: flow cytometry on CHOK1-hKLB cells
Summary of the method: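 Flow cytometry on CHOK1 cells overexpressing human KLB, 1×10⁵ cells/well, incubated with serially diluted antibodies 1 h at 4 °C. Bound antibody detected with APC-goat anti-human IgG Fc (1:400), 1 h at 4 °C.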

[3] = molecular target: T3, human KLB&FGFR1c complex on cells; test: cell-based or functional assay; remark: listed apart in the source
[4] = molecular target: T1, human KLB on CHOK1-hKLB cells; test: flow cytometry on CHOK1-hKLB cells; remark: listed apart in the source
Protocol: (§1) The binding ability of the antibodies for CHOK1 cell strains CHOK1-hKLB and CHOK1-cynoKLB overexpressing human KLB and monkey KLB (see Example 1 for specific preparation procedure), respectively, was detected by flow cytometry. The specific procedure was as follows: the above cells were cultured in 10% FBS-containing IMDM medium and incubated in an incubator at 37° C. and 5% CO₂ for 2 days. The cells were then added to a cell plate at 1×10⁵ cells per well, centrifuged at 300 g for 5 min, and then washed once with 1% BSA. The antibody diluted in gradient was added to the cell plate at 100 μL per well, and the mixture was incubated at 4° C. for 1 h and washed once with 1% BSA. The diluted (1:400) APC-goat anti-human IgG Fc fluorescent secondary antibody was added at 100 μL per well, and the resulting mixture was incubated at 4° C. for 1 h. The plate was washed three times with 1% BSA, PBS was added at 100 μL per well, and the plate was read.

[5] = molecular target: T2, cynomolgus monkey KLB on CHOK1-cynoKLB …; test: flow cytometry on CHOK1-cynoKLB cells
Protocol: as §1

T3 sequence (P11362 22-822, one chain of several): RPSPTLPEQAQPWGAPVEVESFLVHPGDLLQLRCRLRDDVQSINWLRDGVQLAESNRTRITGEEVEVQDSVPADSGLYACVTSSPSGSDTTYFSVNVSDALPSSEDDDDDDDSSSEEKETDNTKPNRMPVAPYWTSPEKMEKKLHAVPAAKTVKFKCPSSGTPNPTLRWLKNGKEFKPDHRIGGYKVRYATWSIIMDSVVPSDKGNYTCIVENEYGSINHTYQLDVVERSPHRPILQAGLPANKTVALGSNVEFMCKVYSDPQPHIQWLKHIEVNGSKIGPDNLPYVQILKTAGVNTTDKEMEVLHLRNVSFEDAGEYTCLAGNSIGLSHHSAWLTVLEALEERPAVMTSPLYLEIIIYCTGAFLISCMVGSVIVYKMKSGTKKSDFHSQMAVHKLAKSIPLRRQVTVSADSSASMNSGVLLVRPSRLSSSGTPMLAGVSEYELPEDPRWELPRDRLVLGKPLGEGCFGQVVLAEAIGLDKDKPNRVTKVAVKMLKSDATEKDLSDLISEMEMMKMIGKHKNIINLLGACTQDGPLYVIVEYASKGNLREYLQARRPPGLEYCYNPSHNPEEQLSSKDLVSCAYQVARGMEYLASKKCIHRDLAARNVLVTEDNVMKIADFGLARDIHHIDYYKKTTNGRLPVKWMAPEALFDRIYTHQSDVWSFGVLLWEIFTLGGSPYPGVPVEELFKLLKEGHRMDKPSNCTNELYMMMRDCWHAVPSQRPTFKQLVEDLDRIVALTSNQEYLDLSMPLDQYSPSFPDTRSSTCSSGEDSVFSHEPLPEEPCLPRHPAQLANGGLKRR

| Binder | Activation fold, GAL4-Elk1 luciferase reporter in CHOK1-hKLB&hFGFR1c cells [1] | EC50 (nM), GAL4-Elk1 luciferase reporter in CHOK1-hKLB&hFGFR1c cells [1] | EC50 [2] | Activation fold, SRE-Luc2P reporter in HEK293T-hKLB&hFGFR1c cells [3] | EC50 (nM), SRE-Luc2P reporter in HEK293T-hKLB&hFGFR1c cells [3] | EC50 [4] | EC50 [5] |
| --- | --- | --- | --- | --- | --- | --- | --- |
| hAb99-13 (antibody, human IgG1, kappa, L234A L235A, V domains shown, human IgG1 (L234A, L235A) / kappa) VH: EVQLVQSGAEVKKPGASVKVSCKASGYTFTNYGINWVRQAPGQRLEWMGYIYIGNVDIEYNAKFKGRVTITSDTSASTAYMELSSLRSEDTAVYYCARGRGLGHFDVWGQGTTVTVSS VL: DIQMTQSPSSLSASVGDRVTITCRASKSISKFLAWFQQKPGKTNKLLIYSGSTLQSGVPSRFSGSGSGTDFTLTISSLQPEDFATYYCQQHNEYPWTFGGGTKVEIKR | 14.3 fold | 0.19 nM | 0.32 nM | 3.57 fold | 2.62 nM | 0.44 nM | 0.27 nM |
| hAb18-8 (antibody, human IgG1, kappa, L234A L235A, V domains shown, human IgG1 (L234A, L235A) / kappa) VH: EVQLVQSGAEVKKPGASVKVSCKASGYTFTDYAMHWVRQAPGQRLEWMGVISTYSGTTNYNQNFKGRVTITVDKSASTAYMELSSLRSEDTAVYYCARSGPLDYWGQGTTVTVSS VL: ENVLTQSPDFQSVTPKEKVTITCRATSSVSSSYLHWYQQKPDQSPKLWIYSTSQLASGVPSRFSGSGSGTDYTLTINSLEAEDAATYYCQQYSGYPLTFGQGTKLEIKR | – | – | 2.5 nM | 2.29 fold | 5.35 nM | 1.93 nM | 1.9 nM |
| hAb-23 (antibody, human IgG1, kappa, L234A L235A, V domains shown, from a human natural phage library; human IgG1 (L234A, L235A) / kappa; also called fully human antibody hAb-23) VH: QVQLVQSGAEVKKPGSSVKVSCKASGGTFSSYAISWVRQAPGQGLEWMGGIIPIFGTANYAQKFQGRVTITADESTSTAYMELSSLRSEDTAVYYCARELVSYYYGMDVWGQGTMVTVSS VL: not shown | – | – | – | – | – | 0.39 nM | 0.13 nM |
